The test system of data set [1] is HeLa Kyoto. In words: melting temperature (median over replicates), in situ; higher = more thermally stable.
The test system of data set [2] is HeLa Kyoto. Put plainly: solubility in G1/S (NP-40 vs SDS abundance) (log2 ratio); higher = more soluble. Conditions: cell cycle stage: G1/S.
For data set [3], the system named is HeLa Kyoto. In words: solubility change mitosis vs G1/S (difference of NP-40 vs SDS log2 ratios) (log2 ratio difference); higher = more soluble in mitosis.
Data set [4] deals with HeLa Kyoto. In words: thermal stability score vs G1/S (z-score of summed log2 fold changes over temperatures); higher = more thermally stable than in G1/S.
The mark [5] stands for this setting: cell cycle stage: early G1 (4.5 h after nocodazole release).
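For melting temperature (median over replicates), in situ in this document: HeLa Kyoto cells synchronized by double thymidine or nocodazole block, proteins quantified by TMT10plex mass spectrometry, three independent biological replicates.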
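For solubility change mitosis vs G1/S (difference of NP-40 vs SDS log2 ratios) in this document: synchronized HeLa Kyoto cells (double thymidine block for G1/S, nocodazole release for mitosis), protein amounts in NP-40 versus SDS lysates quantified by mass spectrometry, three biological replicates.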
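For solubility in G1/S (NP-40 vs SDS abundance) in this document: HeLa Kyoto cells arrested at G1/S by double thymidine block, proteins quantified by TMT10plex mass spectrometry in mild NP-40 versus SDS extracts, three biological replicates.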
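For thermal stability score vs G1/S (z-score of summed log2 fold changes over temperatures) in this document: synchronized HeLa Kyoto cells, proteins quantified by TMT10plex mass spectrometry, three biological replicates, mitosis taken 0.5 h after nocodazole release, G1/S directly after double thymidine block.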

Take “MSGAALGLEIVFVFFLALFLLHRYGDFKKQHRLVIIGTLLAWYLCFLIVFILPLDVSTTIYNRCKHAAANSSPPENSNITGLYATANPVPSQHPCFKPWSYIPDGIMPIFWRVVYWTSQFLTWILLPFMQSYARSGGFSITGKIKTALIENAIYYGTYLLIFGAFLIYVAVNPHLHLEWNQLQTIGIAAANTWGLFLLVLLLGYGLVEIPRSYWNGAKRGYLLMKTYFKAAKLMTEKADAEENLEDAMEEVRKVNESIKYNHPLRKCVDTILKKCPTEYQEKMGRNMDDYEDFDEKHSIYPSEKSLVKLHKQVIYSVQRHRRTQVQWQILLEQAFYLEDVAKNETSATHQFVHTFQSPEPENRFIQYFYNPTFEWYWECLLRPWFYKILAVVLSIFSVIVVWSECTFFSTTPVLSLFAVFIQLAEKTYNYIYIEIACFLSIFFLSICVYSTVFRIRVFNYYYLASHHQTDAYSLLFSGMLFCRLTPPLCLNFLGLTHMDSSISHKNTQPTAYTSIMGSMKVLSFIADGFYIYYPMLVVILCIATYFSLGTRCLNLLGFQQFMGDDDMTSDLVNEGKELIRKEKRKRQRQEEGENRRREWKERYGHNREDSTRNRNIHTDPKESNFSDVNTNRSAFKYTRANNRTERDRIELLQDAEPLDFNAETFTDDPLESESGRYQPGGRYLSMSRSDIFNDV [LMBRD2]”: the melting temperature was found to be 55.4 °C in data set [1] (cell cycle stage: G1/S) and 53.8 °C in data set [1] (cell cycle stage: mitosis). Also, the “solubility in G1/S (log2)” value in data set [2] is -0.331. Besides, the “solubility change mitosis (log2)” value in data set [3] is -0.00686. In addition, the thermal stability score was -0.0528 in data set [4] (setting [5]) and -1.48 in data set [4] (cell cycle stage: mitosis).

Consider “MSGEENPASKPTPVQDVQGDGRWMSLHHRFVADSKDKEPEVVFIGDSLVQLMHQCEIWRELFSPLHALNFGIGGDGTQHVLWRLENGELEHIRPKIVVVWVGTNNHGHTAEQVTGGIKAIVQLVNERQPQARVVVLGLLPRGQHPNPLREKNRQVNELVRAALAGHPRAHFLDADPGFVHSDGTISHHDMYDYLHLSRLGYTPVCRALHSLLLRLLAQDQGQGAPLLEPAP [PAFAH1B3]”, for which the results for the melting temperature in data set [1] (cell cycle stage: G1/S) and in data set [1] (cell cycle stage: mitosis) were 50.6 °C and 51 °C, respectively. The “solubility in G1/S (log2)” value in data set [2] was 0.751. Moreover, in data set [3], the “solubility change mitosis (log2)” value was -0.0232. Besides, the thermal stability score in data set [4] (setting [5]) was 0.482; in data set [4] (cell cycle stage: mitosis) it was 1.01.

Take “MSGESARSLGKGSAPPGPVPEGSIRIYSMRFCPFAERTRLVLKAKGIRHEVININLKNKPEWFFKKNPFGLVPVLENSQGQLIYESAITCEYLDEAYPGKKLLPDDPYEKACQKMILELFSKVPSLVGSFIRSQNKEDYAGLKEEFRKEFTKLEEVLTNKKTTFFGGNSISMIDYLIWPWFERLEAMKLNECVDHTPKLKLWMAAMKEDPTVSALLTSEKDWQGFLELYLQNSPEACDYGL [GSTO1]”: the results for the melting temperature in data set [1] (cell cycle stage: G1/S) and in data set [1] (cell cycle stage: mitosis) were 53.7 °C and 54.2 °C, respectively. The “solubility in G1/S (log2)” value in data set [2] amounted to 0.508. Moreover, the “solubility change mitosis (log2)” value in data set [3] is -0.0339. In addition, the thermal stability score in data set [4] (setting [5]) is 1.3; in data set [4] (cell cycle stage: mitosis), -0.166.

With “MSGFSTEERAAPFSLEYRVFLKNEKGQYISPFHDIPIYADKDVFHMVVEVPRWSNAKMEIATKDPLNPIKQDVKKGKLRYVANLFPYKGYIWNYGAIPQTWEDPGHNDKHTGCCGDNDPIDVCEIGSKVCARGEIIGVKVLGILAMIDEGETDWKVIAINVDDPDAANYNDINDVKRLKPGYLEATVDWFRRYKVPDGKPENEFAFNAEFKDKDFAIDIIKSTHDHWKALVTKKTNGKGISCMNTTLSESPFKCDPDAARAIVDALPPPCESACTVPTDVDKWFHHQKN [PPA1]”, the figures for the melting temperature in data set [1] (cell cycle stage: G1/S) and in data set [1] (cell cycle stage: mitosis) were 54.1 °C and 54.2 °C, respectively. Also, the “solubility in G1/S (log2)” value in data set [2] is 0.43. Further, the “solubility change mitosis (log2)” value in data set [3] is 0.0519. The thermal stability score in data set [4] (setting [5]) was 0.184; in data set [4] (cell cycle stage: mitosis), -1.97.

For the sequence “MSGGKYVDSEGHLYTVPIREQGNIYKPNNKAMADELSEKQVYDAHTKEIDLVNRDPKHLNDDVVKIDFEDVIAEPEGTHSFDGIWKASFTTFTVTKYWFYRLLSALFGIPMALIWGIYFAILSFLHIWAVVPCIKSFLIEIQCISRVYSIYVHTVCDPLFEAVGKIFSNVRINLQKEI [CAV1]”, the results for the melting temperature in data set [1] (cell cycle stage: G1/S) and in data set [1] (cell cycle stage: mitosis) were 57.3 °C and 54.6 °C, respectively. Also, in data set [2], the “solubility in G1/S (log2)” value was -0.297. Further, in data set [3], the “solubility change mitosis (log2)” value is -0.0544. Moreover, the thermal stability score in data set [4] (setting [5]) was -2.45; in data set [4] (cell cycle stage: mitosis) it was -3.05.

As for “MSGGSADYNREHGGPEGMDPDGVIESNWNEIVDNFDDMNLKESLLRGIYAYGFEKPSAIQQRAIIPCIKGYDVIAQAQSGTGKTATFAISILQQLEIEFKETQALVLAPTRELAQQIQKVILALGDYMGATCHACIGGTNVRNEMQKLQAEAPHIVVGTPGRVFDMLNRRYLSPKWIKMFVLDEADEMLSRGFKDQIYEIFQKLNTSIQVVLLSATMPTDVLEVTKKFMRDPIRILVKKEELTLEGIKQFYINVEREEWKLDTLCDLYETLTITQAVIFLNTRRKVDWLTEKMHARDFTVSALHGDMDQKERDVIMREFRSGSSRVLITTDLLARGIDVQQVSLVINYDLPTNRENYIHRIGRGGRFGRKGVAINFVTEEDKRILRDIETFYNTTVEEMPMNVADLI [EIF4A2]”, the values for the melting temperature in data set [1] (cell cycle stage: G1/S) and in data set [1] (cell cycle stage: mitosis) were 52.1 °C and 51.5 °C, respectively. Further, the “solubility in G1/S (log2)” value in data set [2] was found to be 0.106. Moreover, the “solubility change mitosis (log2)” value in data set [3] is -0.2. Also, the values for the thermal stability score in data set [4] (setting [5]) and in data set [4] (cell cycle stage: mitosis) were -0.202 and -1.09, respectively.

Take “MSGIKKQKTENQQKSTNVVYQAHHVSRNKRGQVVGTRGGFRGCTVWLTGLSGAGKTTISFALEEYLVSHAIPCYSLDGDNVRHGLNRNLGFSPGDREENIRRIAEVAKLFADAGLVCITSFISPFAKDRENARKIHESAGLPFFEIFVDAPLNICESRDVKGLYKRARAGEIKGFTGIDSDYEKPETPERVLKTNLSTVSDCVHQVVELLQEQNIVPYTIIKDIHELFVPENKLDHVRAEAETLPSLSITKLDLQWVQVLSEGWATPLKGFMREKEYLQVMHFDTLLDDGVINMSIPIVLPVSAEDKTRLEGCSKFVLAHGGRRVAILRDAEFYEHRKEERCSRVWGTTCTKHPHIKMVMESGDWLVGGDLQVLEKIRWNDGLDQYRLTPLELKQKCKEMNADAVFAFQLRNPVHNGHALLMQDTRRRLLERGYKHPVLLLHPLGGWTKDDDVPLDWRMKQHAAVLEEGVLDPKSTIVAIFPSPMLYAGPTEVQWHCRSRMIAGANFYIVGRDPAGMPHPETKKDLYEPTHGGKVLSMAPGLTSVEIIPFRVAAYNKAKKAMDFYDPARHNEFDFISGTRMRKLAREGENPPDGFMAPKAWKVLTDYYRSLEKN [PAPSS2]”: the values for the melting temperature in data set [1] (cell cycle stage: G1/S) and in data set [1] (cell cycle stage: mitosis) were 52.2 °C and 53.1 °C, respectively. In addition, in data set [2], the “solubility in G1/S (log2)” value was -0.0222. Moreover, the “solubility change mitosis (log2)” value in data set [3] was -0.108. The values for the thermal stability score in data set [4] (setting [5]) and in data set [4] (cell cycle stage: mitosis) were 2.13 and 3.19, respectively.

“MSGPTWLPPKQPEPARAPQGRAIPRGTPGPPPAHGAALQPHPRVNFCPLPSEQCYQAPGGPEDRGPAWVGSHGVLQHTQGLPADRGGLRPGSLDAEIDLLSSTLAELNGGRGHASRRPDRQAYEPPPPPAYRTGSLKPNPASPLPASPYGGPTPASYTTASTPAGPAFPVQVKVAQPVRGCGPPRRGASQASGPLPGPHFPLPGRGEVWGPGYRSQREPGPGAKEEAAGVSGPAGRGRGGEHGPQVPLSQPPEDELDRLTKKLVHDMNHPPSGEYFGQCGGCGEDVVGDGAGVVALDRVFHVGCFVCSTCRAQLRGQHFYAVERRAYCEGCYVATLEKCATCSQPILDRILRAMGKAYHPGCFTCVVCHRGLDGIPFTVDATSQIHCIEDFHRKFAPRCSVCGGAIMPEPGQEETVRIVALDRSFHIGCYKCEECGLLLSSEGECQGCYPLDGHILCKACSAWRIQELSATVTTDC [TRIP6]”: the melting temperature in data set [1] (cell cycle stage: G1/S) and in data set [1] (cell cycle stage: mitosis) was 52 °C in each case. Moreover, in data set [2], the “solubility in G1/S (log2)” value was -0.106. Moreover, the “solubility change mitosis (log2)” value in data set [3] was -0.132. Besides, the thermal stability score is 0.24 in data set [4] (setting [5]) and -0.443 in data set [4] (cell cycle stage: mitosis).

“MSGQRVDVKVVMLGKEYVGKTSLVERYVHDRFLVGPYQNTIGAAFVAKVMSVGDRTVTLGIWDTAGSERYEAMSRIYYRGAKAAIVCYDLTDSSSFERAKFWVKELRSLEEGCQIYLCGTKSDLLEEDRRRRRVDFHDVQDYADNIKAQLFETSSKTGQSVDELFQKVAEDYVSVAAFQVMTEDKGVDLGQKPNPYFYSCCHH [RAB24]”: the melting temperature in data set [1] (cell cycle stage: G1/S) was determined as 53.8 °C; in data set [1] (cell cycle stage: mitosis), 54.2 °C. Also, in data set [2], the “solubility in G1/S (log2)” value is -0.101. Also, in data set [3], the “solubility change mitosis (log2)” value was -0.172. The thermal stability score in data set [4] (setting [5]) is -0.25; in data set [4] (cell cycle stage: mitosis), -0.316.

For the sequence “MSGSMATAEASGSDGKGQEVETSVTYYRLEEVAKRNSLKELWLVIHGRVYDVTRFLNEHPGGEEVLLEQAGVDASESFEDVGHSSDAREMLKQYYIGDIHPSDLKPESGSKDPSKNDTCKSCWAYWILPIIGAVLLGFLYRYYTSESKSS [CYB5B]”, in data set [1] (cell cycle stage: G1/S), the melting temperature was determined as 57.2 °C. In data set [2], the “solubility in G1/S (log2)” value was -0.0447. The “solubility change mitosis (log2)” value in data set [3] was 0.0898. In addition, the thermal stability score was 1.14 in data set [4] (setting [5]) and -0.285 in data set [4] (cell cycle stage: mitosis).

For “MSHGHSHGGGGCRCAAEREEPPEQRGLAYGLYLRIDLERLQCLNESREGSGRGVFKPWEERTDRSKFVESDADEELLFNIPFTGNVKLKGIIIMGEDDDSHPSEMRLYKNIPQMSFDDTEREPDQTFSLNRDLTGELEYATKISRFSNVYHLSIHISKNFGADTTKVFYIGLRGEWTELRRHEVTICNYEASANPADHRVHQVTPQTHFIS [PITHD1]”, the melting temperature in data set [1] (cell cycle stage: G1/S) worked out at 56.2 °C; in data set [1] (cell cycle stage: mitosis), 59.5 °C. The “solubility in G1/S (log2)” value in data set [2] is 0.0556. Also, the “solubility change mitosis (log2)” value in data set [3] was -0.108. For the same sequence, the thermal stability score in data set [4] (setting [5]) was -1.84; in data set [4] (cell cycle stage: mitosis) it was -2.51.

Source of the values: the supplement of paper PMC5998384.
